In US12350286B2, “Polypeptides directed against viral infection and uses thereof” (QUADRUMIX BIOTECHNOLOGY INC., priority 2020, dated 2025):
Entries after “also recorded” stand apart in the source; their conditions may differ. Where two headings read alike, the source gives them in different places.

What was measured:
HBV = assay: supernatant HBV DNA in HepAD38 cells; assay type: cell-based; conditions: 6-day time course
Description: Having regard to FIG. 12, TDF targets the HBV reverse transcriptase, thus only affecting the number virions secreted in the supernatant. In contrast, the presently designed polypeptides should affect cccDNA stability, which can be indirectly measured through levels. As expected, a significant decrease in supernatant HBV (2 log) was caused by TDF treatment. A significant, albeit lower, decrease in HBV supernatant DNA was also observed from sdAb10-2 treatment (0.5 log).

HBeAg = conditions: HepAD38 cells, 6-day time course
Procedure: In this Example 3, the effects of the presently designed polypeptides on HBV replication were analyzed, HepAD38 cells that expresses HBV under the control of a tetracycline promoter were used. HepAD38 cells were plated in the presence of TDF or candidate therapeutic (sdAb10-2) without tetracycline for three days to induce HBV production and to establish a cccDNA reservoir in the nuclei of infected cells. After three days, drugs/sdAbs were replenished and the media was replenished with tetracycline to suppress HBV transcripts being produced from the plasmid, so that only HBV markers be produced from the established cccDNA reservoir. Varying drug concentrations of—TDF and sdAb10-2 were used to determine drug toxicity (TD50) and efficacy during the 6-day time course.
The ability of the presently designed polypeptides to reduce HBeAg levels was also analyzed.

NTCP-HUH7 cells = assay: localization and entry into target cells (staining, microscopy); assay type: cell-based
Description: The foregoing one or more modifications of the at least one polypeptide sdAb10 result in antiviral efficacy. […] Alternatively, the second and third rows shown in FIG. 7 provide that both polypeptides modified to include a cell penetrating peptide coding sequence entered the target cells (i.e. the nuclei and cytoplasm being visualized Hoescht stain and by fluorescently labelled anti-vinculin antibodies, respectively).

[1] = test system: wild-type G-quadruplex of HBV cccDNA pre-core promoter region; assay: phage ELISA assay (absorbance at 450 nm), wild-type vs mutant G-quadruplex; assay type: binding; conditions: for affinity for wild-type G-quadruplex structure of HBV cccDNA compared to mutant G-quadruplex structure: phage ELISA, WT vs MUT (G1748A)
Description: According to embodiments, methods of developing and designing the present at least one novel polypeptide comprising at least one antiviral sdAb are provided. In some embodiments, the methods comprise accessing a fully synthetic phage-display library that codes for 3-billion sdAbs clones, enabling efficient selection of in vitro humanized antibodies against virtually any antigen. Advantageously, no animals or immunization are required, allowing the selection of sdAbs that can target unprocessed G-quadruplex, thereby overcoming conventional techniques of injecting animals to raise antibodies (such techniques known to alter antigen structures).
Having regard to FIG. 4B and Table 1 herein, the at least nine polypeptides having at least one sdAb are referred to as sdAbs 1, 4, 5, 6, 7, 8, 9, 10, and 11 and comprise an amino acid sequence represented as SEQ ID NOs: 9, 10, 11, 12, 13, 14, 15, 16, and 17, respectively.

[2] = test system: HBV pre-core G-quadruplex; assay: MST binding study with HBV pre-core G-quadruplex
Procedure: In this Example, binding studies for at least one of the presently designed polypeptides having at least one sdAb (e.g. sdAb10M and sdAb1) with HBV pre-core G-quadruplex were performed.

HBV cccDNA = assay: pulldown assay with Hirt-extracted cccDNA from explanted HBV infected liver; assay type: binding; conditions: for interaction with cccDNA: pulldown, cccDNA from explanted HBV infected liver; for replicates that picked up cccDNA: three replicates, nested PCR detection
Procedure: In this Example 1, binding studies for at least one of the presently designed polypeptides having at least one sdAb with HBV pre-core G-quadruplex were performed using patient derived samples. For example, two of the presently developed sdAbs, namely sdAb #8 (NB01) and sdAb #1 (NB07), were produced via E. coli expression system and purified via nickel bead affinity chromatography, then size exclusion chromatography (as described in more detail herein). Pulldown assays using Hirt-extracted cccDNA from explanted liver tissue (i.e. liver transplanted secondary to HCC from HBV) were performed.
Having regard to FIG. 8B, results are provided from the pulldown study using sdAbs-bound to magnetic nickel beads with Hirt-extracted, T5 exonuclease-digested cccDNA from an explanted HBV infected liver. Beads were incubated with the corresponding sdAbs comprising, in this Example, the presently developed sdAb8 and sdAb1, washed, and incubated with cccDNA. Excess cccDNA was removed (“xsDNA” lanes), followed by 4 washing steps (“4th Wash” lanes). The sdAbs were eluted and cccDNA was detected through nested PCR (“Elution” lanes). The first lane is the DNA marker highlighting the 150 bp fragment and the next two lanes represent the “sdAb only” elutions (sdAb8 and sdAb1). Subsequent sets of 3 represent the excess cccDNA (“xs”), last washes (“W”) and elutions (“E”) from the corresponding tubes. The last three lanes represent the PCR controls, with negatives from the direct (D) and nested (N) rounds.

[3] = test system: HBV surface antigen (HBsAg); assay: HBsAg levels following exposure to the polypeptide; conditions: increased concentration from 50 μg/mL to 100 μg/mL
Procedure: Having regard to FIG. 5A, expression methods using a bacterial expression system (SDS-PAGE) yielded ˜3 mg of pure sdAbs from 1 L bacterial culture, where lane 1 represents the standard molecular weight marker and elution fractions are shown in lanes 2-6, indicating the presence of at least one polypeptides having at least one sdAb (between 18.4 kDa and 14.4 kDa markers). […] The foregoing confirms that the at least one polypeptide comprise at least one antiviral sdAb.

Q: CC(C)OC(=O)OCOP(=O)(CO[C@H](C)Cn1cnc2c(N)ncnc21)OCOC(=O)OC(C)C.O=C(O)/C=C/C(=O)O [TDF, Tenofovir Disoproxil Fumurate, reference compound] was tested. Which “decrease in supernatant HBV DNA” value (HBV) did it give?
A: Its value is 2 log.

Q: What about the HBeAg levels (HBeAg) of the same molecule?
A: Its HBeAg levels is “did not significantly decrease”.

B1: sdAb10-1: sdAb10 modified with CPP, NTCP-recognition and NLS sequences; full sequence SEQ ID NO: 19 (protein)
VHH: GRKKRRQRRRPPQGGGGSMAEVQLQASGGGFVQPGGSLRLSCAASGRTSKITSMGWFRQAPGKEREFVSAISWSNGLTNYYADSVKGRFTISRDNSKNTVYLQMNSLRAEDTATYYCASKIHTKPKWYWGQGTQVTVSSGGGGSNPLGFFPGGGGSDHQLDGGGGSPKKKRKVSSFLRNHHHHHH
modifications: Single-Domain Antibody 10-01
Q: Which “entry into target cells” value (NTCP-HUH7 cells) does the source give for B1 here?
A: The value was “enter the cell; also recorded: localize and enter the target hepatocyte cells”.

B2: sdAb1: single domain antibody, amino acid sequence SEQ ID NO: 9; used as negative control (poor binder) (protein)
VHH: MAEVQLQASGGGFVQPGGSLRLSCAASGRTYRHSGMGWFRQAPGKEREFVSAISDDHNMESYYADSVKGRFTISRDNSKNTVYLQMNSLRAEDTATYYCAMTKWHGPGGPHWYWGQGTQVTVSS
modifications: Single-Domain Antibody 1
Q: Which results are given for B2?
A: interaction with pre-core G-quadruplex of cccDNA ([1]; FIG. 4): only weakly interacted with the G-quadruplex; affinity for wild-type G-quadruplex structure of HBV cccDNA compared to mutant G-quadruplex structure [1]: higher affinity for the wild-type G-quadruplex structure; interaction with HBV pre-core G-quadruplex [2]: did not interact with HBV pre-core G-quadruplex; interaction with cccDNA (HBV cccDNA): did not interact with cccDNA; replicates that picked up cccDNA (HBV cccDNA): none of the replicates

B3: sdAb 11: single domain antibody, amino acid sequence SEQ ID NO: 17 (protein)
VHH: MAEVQLQASGGGFVQPGGSLRLSCAASGFTSESTSMGWFRQAPGKEREFVSAISRWESTEEYYADSVKGRFTISRDNSKNTVYLQMNSLRAEDTATYYCAYRMHWGGRWRWNYWGQGTQVTVSS
modifications: Single-Domain Antibody 11
Q: How did the “affinity for wild-type G-quadruplex structure of HBV cccDNA compared to mutant G-quadruplex structure” value [1] turn out when B3 was run?
A: Its value is “higher affinity for the wild-type G-quadruplex structure”.

B4: sdAb 5: single domain antibody, amino acid sequence SEQ ID NO: 11 (protein)
VHH: MAEVQLQASGGGFVZPGGSLRLSCAASGRTSYHTNMGWFRQAPGKEREFVSAISSSPNAATYYADSVKGRFTISRDNSKNTVYLQMNSLRAEDTATYYCARTKYGRVMGHMWYWGQGTQVTVSS
modifications: Single-Domain Antibody 5
Q: For B4, which “affinity for wild-type G-quadruplex structure of HBV cccDNA compared to mutant G-quadruplex structure” value [1] is on record?
A: The value was “higher affinity for the wild-type G-quadruplex structure”.

B5: sdAb8: single domain antibody, amino acid sequence SEQ ID NO: 14 (protein)
VHH: MAEVQLQASGGGFVQPGGSLRLSCAASGTTSGQTAMGWFRQAPGKEREFVSAISGHHTPRAYYADSVKGRFTISRDNSKNTVYLQMNSLRAEDTATYYCAWIRRKPQSWYWGQGTQVTVSS
modifications: Single-Domain Antibody 8
Q: For B5, which “affinity for wild-type G-quadruplex structure of HBV cccDNA compared to mutant G-quadruplex structure” value [1] is on record?
A: Its value is “higher affinity for the wild-type G-quadruplex structure”.

Q: What about the “entry into target cells” value (NTCP-HUH7 cells; listed as sdAb08) of the same molecule?
A: Its value is “do not enter the cells; also recorded: failed to enter target cells”.

Q: What about the “interaction with cccDNA” value (HBV cccDNA) of the same molecule?
A: The value was “interacts with HBV cccDNA”.

Q: And the “replicates that picked up cccDNA” value (HBV cccDNA)?
A: The value was “two of the three replicates”.

B6: sdAb10-2: sdAb10 modified with CPP, NTCP-recognition and NLS sequences; full sequence SEQ ID NO: 20 (protein)
VHH: MAEVQLQASGGGFVQPGGSLRLSCAASGRTSKITSMGWFRQAPGKEREFVSAISWSNGLTNYYADSVKGRFTISRDNSKNTVYLQMNSLRAEDTATYYCASKIHTKPKWYWGQGTQVTVSSGGGGSGRKKRRQRRRPPQGGGGSNPLGFFPGGGGSDHQLDGGGGSPKKKRKVSSFLRNHHHHHH
modifications: Single-Domain Antibody 10-02
Q: Which results are given for B6?
A: decrease in supernatant HBV DNA (HBV): 0.5 log; entry into target cells (NTCP-HUH7 cells): enter the cell; also recorded: localize and enter the target hepatocyte cells; HBeAg levels (HBeAg): significantly decreased

B7: sdAb10: single domain antibody, amino acid sequence SEQ ID NO: 16 (protein)
VHH: MAEVQLQASGGGFVQPGGSLRLSCAASGRTSKITSMGWFRQAPGKEREFVSAISWSNGLTNYYADSVKGRFTISRDNSKNTVYLQMNSLRAEDTATYYCASKIHTKPKWYWGQGTQVTVSS
modifications: Single-Domain Antibody 10
Q: What does the source list for B7?
A: affinity for wild-type G-quadruplex structure of HBV cccDNA compared to mutant G-quadruplex structure [1]: higher affinity for the wild-type G-quadruplex structure; HBsAg levels [3]: dose-dependent decrease in HBsAg levels

B8: sdAb 7: single domain antibody, amino acid sequence SEQ ID NO: 13 (protein)
VHH: MAEVQLQASGGGFVQPGGSLRLSCAASGRTYRGETMGWFRQAPGKEREFVSAISWGWSNRAYYADSVKGRFTISRDNSKNTVYLQMNSLRAEDTATYYCASRHMRRAPWSGPGMSYWGQGTQVTVSS
modifications: Single-Domain Antibody 7
Q: Which “affinity for wild-type G-quadruplex structure of HBV cccDNA compared to mutant G-quadruplex structure” value [1] does the source give for B8 here?
A: The value was “higher affinity for the wild-type G-quadruplex structure”.

B9: sdAb 6: single domain antibody, amino acid sequence SEQ ID NO: 12 (protein)
VHH: MAEVQLQASGGGFVQPGGSLRLSCAASGTGFRHTAMGWFRQAPGKEREFVSAISGHASKQAYYADSVKGRFTISRDNSKNTVYLQMNSLRAEDTATYYCAFRRAEKIYGHPMAPQKLWYWGQGTQVTVSS
modifications: Single-Domain Antibody 6
Q: With B9 as the molecule, how does the “affinity for wild-type G-quadruplex structure of HBV cccDNA compared to mutant G-quadruplex structure” value [1] read?
A: Its value is “higher affinity for the wild-type G-quadruplex structure”.

B10: sdAb 4: single domain antibody, amino acid sequence SEQ ID NO: 10 (protein)
VHH: MAEVQLQASGGGFVZPGGSLRLSCAASGRTSKWYSMGWFRQAPGKEREFVSAISYRQNIRAYYADSVKGRFTISRDNSKNTVYLQMNSLRAEDTATYYCAATHSYLFKFPTHFPQPQDYWGQGTQVTVSS
modifications: Single-Domain Antibody 4
Q: How did the “affinity for wild-type G-quadruplex structure of HBV cccDNA compared to mutant G-quadruplex structure” value [1] turn out when B10 was run?
A: Its value is “higher affinity for the wild-type G-quadruplex structure”.

B11: sdAb 9: single domain antibody, amino acid sequence SEQ ID NO: 15 (protein)
VHH: MAEVQLQASGGGFVQPGGSLRLSCAASGRTSGHYSMGWFRQAPGKEREFVSAISGRGNSLSYYADSVKGRFTISRDNSKNTVYLQMNSLRAEDTATYYCAWWHRDSHPQSGKHMRYWGQGTQVTVSS
modifications: Single-Domain Antibody 9
Q: B11 was tested. Which “affinity for wild-type G-quadruplex structure of HBV cccDNA compared to mutant G-quadruplex structure” value [1] did it give?
A: Its value is “higher affinity for the wild-type G-quadruplex structure”.
